This is an account of results in paper PMC5181381.

For experiment [1], the target named is truncated form of turkey β1-adrenergic receptor, β1AR^∆NC (turkey) (UniProt P07700).
The target of experiment [2] is minimally thermostabilised turkey β1AR construct β1AR-84 (turkey) (UniProt P07700).
Experiment [3] concerns the target truncated form of turkey β1-adrenergic receptor, β1AR^∆NC (turkey) (UniProt P07700). The source holds these as a separate data set.
Experiment [4] has the same target. Nature of the experiment: SEC; purified β1AR^∆NC in LMNG mixed with a 1.2-fold molar excess of mini-Gs393, on ice 4 h; Superdex-200 10/300; 10 mM HEPES pH 7.5, 100 mM NaCl, 1 mM MgCl2, 1 μM ascorbic acid, 1 μM isoprenaline, 0.002% LMNG; peak fractions analysed by SDS-PAGE.
The target of experiment [5] is non-lipidated Gβ1γ2 dimer (UniProt P62873). Nature of the experiment: SEC; purified mini-Gs399 mixed with non-lipidated Gβ1γ2 dimer in an equimolar ratio, on ice 4 h; Superdex-200 10/300; 10 mM HEPES pH 7.5, 100 mM NaCl, 1 mM MgCl2, 1 μM GDP, 0.1 mM TCEP.

In the case of “soluble heterotrimeric Gs in the presence of the nanobody Nb35 (from UniProt P63092 1-394; P62873 1-340; P59768 1-71) (complex)”, in experiment [1], the Apparent Tm of β1AR^∆NC in DDM, measured by ^3H-NE binding (°C) was 35.8 °C. In experiment [2], this substance yielded a fold increase of the isoprenaline affinity of membrane-embedded β1AR-84 (competition with 3H-DHA, 25 μM binding partner, 20°C) of 162 fold. Also, the fold shift of the isoprenaline affinity of membrane-embedded β1AR^∆NC (competition with 3H-DHA, 25 μM binding partner, 20°C) in experiment [3] turned out to be 6 fold.

For “Mini-Gs393 (final mini-Gs construct) (domain or fragment)”, the Apparent Tm of β1AR^∆NC in DDM, measured by ^3H-NE binding (°C) in experiment [1] turned out to be 34.1 °C. In experiment [4], this substance registered a stoichiometry N of 1.

As for mini-Gs399 (domain or fragment), the stoichiometry N in experiment [5] worked out at 1.
